Experimental data taken from US20240109963A1.
Each block holds one binder with its values, some of them ahead of it.

Assays:
[1] = biological target: Claudin 18.1 on CHO cells (CHO+ Claudin 18.1) (UniProt P56856); experiment: flow cytometry, unpurified culture supernatant on CHO_18.1 cells, anti-c-Myc 9E10 + Avidin-PE; parental CHO in the same table: 1.25 %
[2] = biological target: Claudin 18.1 on CHO cells (CHO+ Claudin 18.1) (UniProt P56856); experiment: flow cytometry, unpurified culture supernatant on CHO_18.1 cells, anti-c-Myc 9E10 + Avidin-PE; parental CHO in the same table: 1.71 %

Chain of Claudin 18.1 on CHO cells (CHO+ Claudin 18.1) (P56856 whole entry): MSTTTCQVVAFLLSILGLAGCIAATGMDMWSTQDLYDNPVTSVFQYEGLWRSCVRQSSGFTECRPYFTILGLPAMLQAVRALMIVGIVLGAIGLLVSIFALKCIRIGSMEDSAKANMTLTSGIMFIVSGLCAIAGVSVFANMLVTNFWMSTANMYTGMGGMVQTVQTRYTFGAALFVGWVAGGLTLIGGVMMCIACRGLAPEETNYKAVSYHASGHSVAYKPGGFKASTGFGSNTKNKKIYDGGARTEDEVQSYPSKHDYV

PE-Positive Cells (%) [1]: 6.79%
B1: Claudin 18.2-4G1 (VHH)
VHH: QVQLVESGGGVVQTGGSLRLTCEISGAALSSYTMGWFRQAPGKEREFVAAISWGGSITWYADSVKGRFTISRDNAKNTVYLQMNSLKPEDTAVYYCHAEGQFGALSYPKDYWGQGTQVTVSS

PE-Positive Cells (%) [2]: 7.32%
B2: Claudin 18.2-3C2 (VHH)
VHH: QVQLVESGGGLVQPGGSLRLSCAASGFTFSNYAMYWVRQAPGKGPEWVSVISGGGGVISYADSVKGRFTISRDNAKNTMYLQMNSLKPEDTAVYYCNAQSAVWWENDYWGQGTQVTVSS
